Assay [1] deals with T1, human CD3 on cells (HPB-ALL cells, primary human T cells) (human, UniProt P07766 23-207).
T1 construct: whole, on cells; only the epsilon chain is written
In words: flow cytometry on CD4+ T cells in human PBMCs, anti-human IgG PE secondary. For orientation: Flow cytometry measures light scatter and fluorescence of single cells or particles in a stream.

The target in assay [2] is T2, human CD3 on primary human T cells (human, UniProt P07766 23-207; P04234 22-171; P09693 23-182; P20963 22-164).
T2 construct: whole, on cells; Endogenous CD3 complex on isolated human T cells, gated CD38-negative; also called CD3-expressing T cells; human CD38 negative T cells
As to the kind of experiment: flow cytometry on isolated human primary T cells gated CD38-negative; one-site binding fit.

In assay [3] the target is T3, human BCMA on multiple myeloma cells (human, UniProt Q02223 1-184).
T3 construct: whole, on cells; Here the protein is the cell lines' own; also called B-cell maturation antigen; TNFRSF17
T3 sequence (looked up): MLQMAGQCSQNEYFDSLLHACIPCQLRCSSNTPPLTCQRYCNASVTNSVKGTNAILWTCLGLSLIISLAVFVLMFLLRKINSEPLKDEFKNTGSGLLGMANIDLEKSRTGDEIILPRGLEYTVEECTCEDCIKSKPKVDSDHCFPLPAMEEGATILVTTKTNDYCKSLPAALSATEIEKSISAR
In words: flow cytometry on NCI-H929 CD38 KO cells; one-site binding fit.

Assay [4] deals with T3, human BCMA on multiple myeloma cells. As to the kind of experiment: flow cytometry on KMS-12-BM cells; one-site binding fit.
Assay [5] has the same target. As to the kind of experiment: flow cytometry on NCI-H929 cells (BCMA++CD38++), anti-human IgG secondary, RFI.
The target is the same in assay [6]. In words: flow cytometry on KMS-12-BM cells (BCMA+CD38+), anti-human IgG secondary, RFI.
For assay [7] the target is unchanged. In words: flow cytometry on NCI-H929 CD38 KO cells (BCMA++CD38-), anti-human IgG secondary, RFI.
For assay [8] the target is unchanged. As to the kind of experiment: flow cytometry on NCI-H929 WT cells; one-site binding fit.
For assay [9], the target named is T4, human CD38 on multiple myeloma cells (human, UniProt P28907 1-300).
T4 construct: whole, on cells; Here the protein is the cell lines' own
In words: flow cytometry on NCI-H929 BCMA KO cells (BCMA-CD38++), anti-human IgG secondary, RFI.

For assay [10], the target named is T5, human CD3 on primary human CD38-negative T cells (human, UniProt P07766 23-207; P04234 22-171; P09693 23-182).
T5 construct: whole, on cells; Native CD3 within the TCR/CD3 complex on isolated human T cells, gated CD38-negative
As to the kind of experiment: flow cytometry on primary human CD38-negative T cells, one-site binding fit.

Assay [11] deals with T5, human CD3 on primary human …. In words: flow cytometry on CD38-negative primary human T cells, RFI after subtraction of the negative control, six donors.
Assay [12] has as its target recombinant cynomolgus monkey BCMA protein (Acrobiosystems BCA-C52H7) (cynomolgus monkey, UniProt A0A2K5UD97 1-53). In words: SPR, Fab as analyte, immobilised cynomolgus BCMA. On the technique in general: In SPR one partner is held on a chip, and binding of the other changes the refractive index at the surface.
Assay [13] addresses T6, recombinant human BCMA protein (Acrobiosystems BCA-H522y) (human, UniProt Q02223 1-54).
T6 construct: bought protein
T6 sequence (looked up): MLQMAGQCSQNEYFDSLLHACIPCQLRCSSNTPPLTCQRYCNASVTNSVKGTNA
As to the kind of experiment: SPR, Fab as analyte, immobilised human BCMA, 1:1 Langmuir.

Assay [14] has as its target T1, human CD3 on cells (HPB-ALL cells, …). In words: flow cytometry, human CD4+ T cells.

T5 sequence (P07766 23-207, chain 1 of 3): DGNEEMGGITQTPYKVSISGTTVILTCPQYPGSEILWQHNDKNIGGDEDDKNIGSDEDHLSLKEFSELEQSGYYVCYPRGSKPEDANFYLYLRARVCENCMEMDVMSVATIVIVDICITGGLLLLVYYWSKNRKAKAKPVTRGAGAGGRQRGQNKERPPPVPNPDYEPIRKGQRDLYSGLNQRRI
T5 sequence (P04234 22-171, chain 2 of 3): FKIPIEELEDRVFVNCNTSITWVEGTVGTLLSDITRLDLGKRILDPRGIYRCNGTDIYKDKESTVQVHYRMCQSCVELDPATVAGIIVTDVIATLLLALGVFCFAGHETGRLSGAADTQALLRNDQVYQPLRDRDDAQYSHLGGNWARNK
T5 sequence (P09693 23-182, chain 3 of 3): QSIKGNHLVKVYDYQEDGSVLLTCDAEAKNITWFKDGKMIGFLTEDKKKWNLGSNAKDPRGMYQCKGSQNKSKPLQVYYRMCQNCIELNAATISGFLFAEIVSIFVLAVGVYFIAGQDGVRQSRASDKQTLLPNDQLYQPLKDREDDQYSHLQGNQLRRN
T1 sequence (P07766 23-207): as the sequence (P07766 23-207, chain 1 of 3) above
T2 sequence (P07766 23-207, chain 1 of 4): as the sequence (P07766 23-207, chain 1 of 3) above
T2 sequence (P04234 22-171, chain 2 of 4): as the sequence (P04234 22-171, chain 2 of 3) above
T2 sequence (P09693 23-182, chain 3 of 4): as the sequence (P09693 23-182, chain 3 of 3) above
T2 sequence (P20963 22-164, chain 4 of 4): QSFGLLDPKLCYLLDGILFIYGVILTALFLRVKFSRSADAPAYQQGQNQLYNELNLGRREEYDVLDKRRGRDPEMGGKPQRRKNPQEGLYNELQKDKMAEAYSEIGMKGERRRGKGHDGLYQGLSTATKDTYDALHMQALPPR
recombinant cynomolgus monkey BCMA protein (Acrobiosystems BCA-C52H7), sequence (A0A2K5UD97 entry or part of it): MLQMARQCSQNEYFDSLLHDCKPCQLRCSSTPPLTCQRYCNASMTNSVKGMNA

B1: Anti-CD3-UCP07-A4 IgG1LALA (antibody, V domains shown)
VH: EVQLLESGGGLVQPGGSLRLSCAASGSTFRRYVMGWVRQAPGKGLEWVSAISQQGGYTYYADSVKGRFTISRDNSKNTLYLQMNSLRAEDTAVYYCARSSSSAFDVWGQGTLVTVSS
VL: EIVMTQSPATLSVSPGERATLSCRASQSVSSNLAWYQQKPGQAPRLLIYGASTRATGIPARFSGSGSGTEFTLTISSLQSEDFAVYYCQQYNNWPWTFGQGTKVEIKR
notes: IgG1 LALA
For the molecule B1, the binding result in assay [1] is given as “no binding (tested: 800 nM)”.

B2: alnuctamab (bispecific antibody)
chain 1: EVQLLESGGGLVQPGGSLRLSCAASGFTFSDNAMGWVRQAPGKGLEWVSAISGPGSSTYYADSVKGRFTISRDNSKNTLYLQMNSLRAEDTAVYYCAKVLGWFDYWGQGTLVTVSSASTKGPSVFPLAPSSKSTSGGTAALGCLVEDYFPEPVTVSWNSGALTSGVHTFPAVLQSSGLYSLSSVVTVPSSSLGTQTYICNVNHKPSNTKVDEKVEPKSCDKTHTCPPCPAPEAAGGPSVFLFPPKPKDTLMISRTPEVTCVVVDVSHEDPEVKFNWYVDGVEVHNAKTKPREEQYNSTYRVVSVLTVLHQDWLNGKEYKCKVSNKALGAPIEKTISKAKGQPREPQVCTLPPSRDELTKNQVSLSCAVKGFYPSDIAVEWESNGQPENNYKTTPPVLDSDGSFFLVSKLTVDKSRWQQGNVFSCSVMHEALHNHYTQKSLSLSPGK
chain 2: EIVLTQSPGTLSLSPGERATLSCRASQSVSDEYLSWYQQKPGQAPRLLIHSASTRATGIPDRFSGSGSGTDFTLAISRLEPEDFAVYYCQQYGYPPDFTFGQGTKVEIKRTVAAPSVFIFPPSDRKLKSGTASVVCLLNNFYPREAKVQWKVDNALQSGNSQESVTEQDSKDSTYSLSSTLTLSKADYEKHKVYACEVTHQGLSSPVTKSFNRGEC
chain 3: not shown
chain 4: EVQLLESGGGLVQPGGSLRLSCAASGFTFSTYAMNWVRQAPGKGLEWVSRIRSKYNNYATYYADSVKGRFTISRDDSKNTLYLQMNSLRAEDTAVYYCVRHGNFGNSYVSWFAYWGQGTLVTVSSASVAAPSVFIFPPSDEQLKSGTASVVCLLNNFYPREAKVQWKVDNALQSGNSQESVTEQDSKDSTYSLSSTLTLSKADYEKHKVYACEVTHQGLSSPVTKSFNRGEC
The Kd is the concentration at which binding is half-saturated. As a reminder, the EC50 (read off the curve) is the midpoint of the concentration-response curve. B2: the Kd was 252 nM in assay [2], 8.1 nM in [3], 3.9 nM in assay [4] and 6 nM in assay [8]. Besides, the 50% effective concentration (EC50 (read off the curve)) in [5] is approximately 6 nM; in assay [6] it was approximately 3 nM; in [7] it was approximately 7 nM.

B3: 83A10-TCBcv (bispecific antibody, human IgG1, kappa, L234A L235A)
chain 1: not shown
chain 2: not shown
chain 3: not shown
chain 4: EVQLLESGGGLVQPGGSLRLSCAASGFTFSTYAMNWVRQAPGKGLEWVSRIRSKYNNYATYYADSVKGRFTISRDDSKNTLYLQMNSLRAEDTAVYYCVRHGNFGNSYVSWFAYWGQGTLVTVSSASVAAPSVFIFPPSDEQLKSGTASVVCLLNNFYPREAKVQWKVDNALQSGNSQESVTEQDSKDSTYSLSSTLTLSKADYEKHKVYACEVTHQGLSSPVTKSFNRGEC
notes: Comparator CD3xBCMA bispecific antibody; also called CD3 x BCMA benchmark
As to B3, the dissociation constant Kd in assay [2] stood at 155 nM. The binding result in assay [9] is listed as “no binding (tested: 800 nM)”.

B4: 83A10-TCBcv (bispecific antibody, human IgG1, kappa, L234A L235A)
chain 1: not shown
chain 2: not shown
chain 3: not shown
chain 4: EVQLLESGGGLVQPGGSLRLSCAASGFTFSTYAMNWVRQAPGKGLEWVSRIRSKYNNYATYYADSVKGRFTISRDDSKNTLYLQMNSLRAEDTAVYYCVRHGNFGNSYVSWFAYWGQGTLVTVSSASVAAPSVFIFPPSDEQLKSGTASVVCLLNNFYPREAKVQWKVDNALQSGNSQESVTEQDSKDSTYSLSSTLTLSKADYEKHKVYACEVTHQGLSSPVTKSFNRGEC
notes: CD3xBCMA bispecific comparator; also called EM-801; CD3xBCMA benchmark
For the molecule B4, in [10], the Kd is 80 nM and the “Max binding (RFI)” value turned out to be 103000 RFI.

B5: Anti-CD3-UCP07-F3 IgG1LALA (antibody, V domains shown)
VH: EVQLLESGGGLVQPGGSLRLSCAASGFNFSGHAVGWVRQAPGKGLEWVSAISQNGGYTLYADSVKGRFTISRDNSKNTLYLQMNSLRAEDTAVYYCARAASYGLDYALDIWGQGTLVTVSS
VL: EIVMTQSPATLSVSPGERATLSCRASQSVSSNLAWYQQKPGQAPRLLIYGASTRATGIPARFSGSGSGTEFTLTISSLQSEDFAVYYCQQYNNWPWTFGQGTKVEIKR
notes: IgG1 LALA
Take B5: the binding result in [1] is “no binding (tested: 800 nM)”.

B6: TNB-F2B BEAT Fc (bispecific antibody, human IgG1, kappa, L234A L235A)
chain 1: EVQLVESGGGLVQPGRSLRLSCAASGFTFDDYAMHWVRQAPGKGLEWVSGISWNSGSIGYADSVKGRFTISRDNAKNSLYLQMNSLRAEDTALYYCAKDSRGYGDYRLGGAYWGQGTLVTVSSASTKGPSVFPLAPSSKSTSGGTAALGCLVKDYFPEPVTVSWNSGALTSGVHTFPAVLQSSGLYSLSSVVTVPSSSLGTQTYICNVNHKPSNTKVDKKVEPKSCDKTHTCPPCPAPEAAGGPSVFLFPPKPKDTLMISRTPEVTCVVVDVSHEDPEVKFNWYVDGVEVHNAKTKPREEQYNSTYRVVSVLTVLHQDWLNGKEYKCKVSNKALPAPIEKTISKAKGQPREPAVYTLPPSREEMTKNQVKLVCLVTGFYPSDIAVEWESSGQPENNYYTTPPMLDSDGSFSLVSWLNVDKSRWQQGNIFSCSVMHEALHNRFTQKSLSLSPG
chain 2: EVQLLESGGGLVQPGGSLRLSCAASGFTVSSYGMSWVRQAPGKGPEWVSGIRGSDGSTYYADSVKSRFTISRDNSKNTLYLQMNSLRAEDTAVYYCAKQGENDGPFDHRGQGTLVTVSSGGGGSEVQLLESGGGLVQPGGSLRLSCAASGFTVSSYGMSWVRQAPGKGPEWVSGIRGSDGSTYYADSVKSRFTISRDNSKNTLYLQMNSLRAEDTAVYYCAKQGENDGPFDHRGQGTLVTVSSGGGGTDKTHTCPPCPAPEAAGGPSVFLFPPKPKDTLMISRTPEVTCVVVDVSHEDPEVKFNWYVDGVEVHNAKTKPREEQYNSTYRVVSVLTVLHQDWLNGKEYKCKVSNKALPAPIEKTISKAKGQPREPEVATFPPSRDELTKNQVTLVCLVTGFYPSDIAVEWESNGQPENNYKTDPPLLESQGSFALSSRLRVDKSRWQQGNVFSCSVMHEALHNHYTQKSLSLSPG
light: not shown
notes: CD3 Fab (TNB-F2B) x BCMA dAb-dAb (TNB-BCMA) on a silenced (LALA) BEAT Fc; also called CD3xBCMA benchmark
For the molecule B6, the “Max binding (RFI)” value in assay [10] was 60 RFI. Further, the binding result in assay [11] is given as “no binding (tested: 800 nM)”.

B7: anti-BCMA-UCP01-F9 FAB (Fab, V domains shown)
VH: QVQLVQSGAEVKKPGSSVKVSCKASGYKFRTYAINWVRQAPGQGLEWMGGIVPISGETFYAQKFQGRVTITADESTSTAYMELSSLRSEDTAVYYCAREDYSDYWGQGTLVTVSS
VL: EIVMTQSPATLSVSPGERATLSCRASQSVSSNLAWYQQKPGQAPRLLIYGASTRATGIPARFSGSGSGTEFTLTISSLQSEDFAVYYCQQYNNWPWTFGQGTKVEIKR
notes: Fab
Take B7: in [12], the binding result is on record as “no binding”. Further, in assay [13], the Kd worked out at 617 nM.

B8: Anti-CD3-UCP06-C1 IgG1LALA (antibody, V domains shown)
VH: QVQLVQSGAEVKKPGSSVKVSCKASGGKFSRYAISWVRQAPGQGLEWMGGIIPKGGYAEYAQKFQGRVTITADESTSTAYMELSSLRSEDTAVYYCARYGYSLYMDIWGQGTLVTVSS
VL: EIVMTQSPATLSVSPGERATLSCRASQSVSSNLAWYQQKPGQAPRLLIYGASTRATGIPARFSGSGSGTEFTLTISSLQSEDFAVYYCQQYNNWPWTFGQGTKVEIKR
notes: IgG1 LALA; also called anti-CD3-C1
B8: in assay [14], the “MFI at 800 nM” value was 45200 MFI. For the same molecule, the “EC50 (read off the curve)” value in [1] was approximately 40 nM.

B9: Anti-CD3-UCP07-B2 IgG1LALA (antibody, V domains shown)
VH: EVQLVESGGGLVKPGGSLRLSCAASGFDFGKAWMAWVRQAPGKGLEWVGRIKSDFKGGDTIYAAPVKGRFTISRDDSKNTLYLQMNSLKTEDTAVYYCARGRSRGVSEFDYWGQGTLVTVSS
VL: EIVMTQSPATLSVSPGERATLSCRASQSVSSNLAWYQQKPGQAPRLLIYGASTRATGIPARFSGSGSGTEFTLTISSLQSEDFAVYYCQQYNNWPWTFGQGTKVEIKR
notes: IgG1 LALA
On to B9, for which, in [1], the binding result is on record as “no binding (tested: 800 nM)”.

B10: anti-BCMA-PP02-C2 FAB (Fab, V domains shown)
VH: QVQLVQSGAEVKKPGSSVKVSCKASGGHFSSYAISWVRQAPGQGLEWMGGIIPQHGVPSYAQKFQGRVTITADESTSTAYMELSSLRSEDTAVYYCARVLITVDGSYGGFDYWGQGTLVTVSS
VL: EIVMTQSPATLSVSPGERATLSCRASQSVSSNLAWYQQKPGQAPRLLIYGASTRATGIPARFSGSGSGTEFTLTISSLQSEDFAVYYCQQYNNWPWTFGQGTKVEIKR
notes: Fab
With B10, the binding result in assay [12] was “no binding”. Further, the Kd in assay [13] stood at 915 nM.

The values above are taken from patent US20240132615A1 (ICHNOS SCIENCES, published 2024).
